Data as given in patent US20240228572A1 (I2O THERAPEUTICS, published 2024).
*1 amine or outer side, *2 acyl side, *3 side chain or, on linkers, in order; H or OH if unused. Bridges are numbered along the chain shown (N, C = ends). Primed or numbered codes have the meaning given here. Where no end group is shown, it is not given here. Side-chain parts run from the residue outwards. [ ]: non-standard residue; d: D form. The star is where a group is joined. dpeg″ = spacer —[CO(CH2)O(CH2)2O(CH2)NH]—, O=C(COCCOCN[*:1])[*:2]; dpeg = —[CO(CH2)O(CH2)2O(CH2)NH]— spacer, O=C(COCCOCN[*:1])[*:2]; C20 diacid = O=C(O)CCCCCCCCCCCCCCCCCCC(=O)*; γGlu = O=C(O)[C@H](CCC(=O)[*:2])N[*:1]; NMeE = CN[C@@H](CCC(=O)O)C(=O)O; Aib = CC(C)(N)C(=O)O

B1: Compound A13 (peptide)
peptide: YSHGTFTSDYSKYLDK([γGlu-γGlu-C20 diacid])KYAQEFV[Aib]WLEDEPSSGAPPPS-OH
modifications: N-terminus assumed
SMILES: CC(C)C[C@H](NC(=O)[C@H](Cc1ccc(O)cc1)NC(=O)[C@H](CCCCN)NC(=O)[C@H](CO)NC(=O)[C@H](Cc1ccc(O)cc1)NC(=O)[C@H](CC(=O)O)NC(=O)[C@H](CO)NC(=O)[C@@H](NC(=O)[C@H](Cc1ccccc1)NC(=O)[C@@H](NC(=O)CNC(=O)[C@H](Cc1c[nH]cn1)NC(=O)[C@H](CO)NC(=O)[C@@H](N)Cc1ccc(O)cc1)[C@@H](C)O)[C@@H](C)O)C(=O)N[C@@H](CC(=O)O)C(=O)N[C@@H](CCCCNC(=O)CC[C@H](NC(=O)CC[C@H](NC(=O)CCCCCCCCCCCCCCCCCCC(=O)O)C(=O)O)C(=O)O)C(=O)N[C@@H](CCCCN)C(=O)N[C@@H](Cc1ccc(O)cc1)C(=O)N[C@@H](C)C(=O)N[C@@H](CCC(N)=O)C(=O)N[C@@H](CCC(=O)O)C(=O)N[C@@H](Cc1ccccc1)C(=O)N[C@H](C(=O)NC(C)(C)C(=O)N[C@@H](Cc1c[nH]c2ccccc12)C(=O)N[C@@H](CC(C)C)C(=O)N[C@@H](CCC(=O)O)C(=O)N[C@@H](CC(=O)O)C(=O)N[C@@H](CCC(=O)O)C(=O)N1CCC[C@H]1C(=O)N[C@@H](CO)C(=O)N[C@@H](CO)C(=O)NCC(=O)N[C@@H](C)C(=O)N1CCC[C@H]1C(=O)N1CCC[C@H]1C(=O)N1CCC[C@H]1C(=O)N[C@@H](CO)C(=O)O)C(C)C
B2: Compound A14 (peptide)
peptide: YSHGTFTSDYSKYLD[Aib]KYAQK([γGlu-γGlu-C20 diacid])FV[Aib]WLEDEPSSGAPPPS-OH
modifications: N-terminus assumed
SMILES: CC(C)C[C@H](NC(=O)[C@H](Cc1ccc(O)cc1)NC(=O)[C@H](CCCCN)NC(=O)[C@H](CO)NC(=O)[C@H](Cc1ccc(O)cc1)NC(=O)[C@H](CC(=O)O)NC(=O)[C@H](CO)NC(=O)[C@@H](NC(=O)[C@H](Cc1ccccc1)NC(=O)[C@@H](NC(=O)CNC(=O)[C@H](Cc1c[nH]cn1)NC(=O)[C@H](CO)NC(=O)[C@@H](N)Cc1ccc(O)cc1)[C@@H](C)O)[C@@H](C)O)C(=O)N[C@@H](CC(=O)O)C(=O)NC(C)(C)C(=O)N[C@@H](CCCCN)C(=O)N[C@@H](Cc1ccc(O)cc1)C(=O)N[C@@H](C)C(=O)N[C@@H](CCC(N)=O)C(=O)N[C@@H](CCCCNC(=O)CC[C@H](NC(=O)CC[C@H](NC(=O)CCCCCCCCCCCCCCCCCCC(=O)O)C(=O)O)C(=O)O)C(=O)N[C@@H](Cc1ccccc1)C(=O)N[C@H](C(=O)NC(C)(C)C(=O)N[C@@H](Cc1c[nH]c2ccccc12)C(=O)N[C@@H](CC(C)C)C(=O)N[C@@H](CCC(=O)O)C(=O)N[C@@H](CC(=O)O)C(=O)N[C@@H](CCC(=O)O)C(=O)N1CCC[C@H]1C(=O)N[C@@H](CO)C(=O)N[C@@H](CO)C(=O)NCC(=O)N[C@@H](C)C(=O)N1CCC[C@H]1C(=O)N1CCC[C@H]1C(=O)N1CCC[C@H]1C(=O)N[C@@H](CO)C(=O)O)C(C)C
B3: Compound A29 (peptide)
peptide: YSHGTFTSDYSKYLD[Aib]KYAQK([γGlu-γGlu-dpeg″-C20 diacid])FVKWLEEEPSSGAPPPS-OH
modifications: lactam 24-28; N-terminus assumed
SMILES: CC(C)C[C@@H]1NC(=O)[C@H](Cc2c[nH]c3ccccc23)NC(=O)[C@@H](NC(=O)[C@@H](NC(=O)[C@H](Cc2ccccc2)NC(=O)[C@H](CCCCNC(=O)CC[C@H](NC(=O)CC[C@H](NC(=O)COCCOCNC(=O)CCCCCCCCCCCCCCCCCCC(=O)O)C(=O)O)C(=O)O)NC(=O)[C@H](CCC(N)=O)NC(=O)[C@H](C)NC(=O)[C@H](Cc2ccc(O)cc2)NC(=O)[C@H](CCCCN)NC(=O)C(C)(C)NC(=O)[C@H](CC(=O)O)NC(=O)[C@H](CC(C)C)NC(=O)[C@H](Cc2ccc(O)cc2)NC(=O)[C@H](CCCCN)NC(=O)[C@H](CO)NC(=O)[C@H](Cc2ccc(O)cc2)NC(=O)[C@H](CC(=O)O)NC(=O)[C@H](CO)NC(=O)[C@@H](NC(=O)[C@H](Cc2ccccc2)NC(=O)[C@@H](NC(=O)CNC(=O)[C@H](Cc2c[nH]cn2)NC(=O)[C@H](CO)NC(=O)[C@@H](N)Cc2ccc(O)cc2)[C@@H](C)O)[C@@H](C)O)C(C)C)CCCCNC(=O)CC[C@@H](C(=O)N[C@@H](CCC(=O)O)C(=O)N2CCC[C@H]2C(=O)N[C@@H](CO)C(=O)N[C@@H](CO)C(=O)NCC(=O)N[C@@H](C)C(=O)N2CCC[C@H]2C(=O)N2CCC[C@H]2C(=O)N2CCC[C@H]2C(=O)N[C@@H](CO)C(=O)O)NC(=O)[C@H](CCC(=O)O)NC1=O

These binders were tested against human Glucagon receptor (GCGR) (human, UniProt P47871 26-477) (assay: cell-based or functional assay).

| Binder | pEC50, cAMP accumulation |
| --- | --- |
| YSHGTFTSDYSKYLK([γGlu-γGlu-dpeg-C20 diacid])[Aib]KYAQEFV[Aib]WLEDEPSSGAPPPS-OH [Compound A1] | 11.5 pEC50 (-log M) |
| YSHGTFTSDYSKYLDK([γGlu-γGlu-dpeg-C20 diacid])KYAQEF[Aib]EWLEDEPSSGAPPPS-OH [Compound A8] | 9.9 pEC50 (-log M) |
| YSHGTFTSDYSKYLDK([γGlu-γGlu-dpeg-C20 diacid])KYAQEF[Aib]KWLEDEPSSGAPPPS-OH [Compound A9] | 10.6 pEC50 (-log M) |
| YSHGTFTSDYSKYLDK([γGlu-γGlu-dpeg-C20 diacid])KYAQEF[Aib]SWLEDEPSSGAPPPS-OH [Compound A10] | 10.4 pEC50 (-log M) |
| YSHGTFTSDYSKYLDK([γGlu-γGlu-dpeg″-C20 diacid])KYAKEFVEWLEDEPSSGAPPPS-OH (lactam 20-24) [Compound A11] | 11.7 pEC50 (-log M) |
| YSHGTFTSDYSKYLDK([γGlu-γGlu-dpeg″-C20 diacid])KYAEEFVKWLEDEPSSGAPPPS-OH (lactam 20-24) [Compound A12] | 11.8 pEC50 (-log M) |
| YSHGTFTSDYSKYLDK([γGlu-γGlu-dpeg-C20 diacid])KYAQEFV[Aib]WLEDEPSSGAPPPS-OH [Compound A2] | 12.5 pEC50 (-log M) |
| B1 | 12 pEC50 (-log M) |
| B2 | 11.2 pEC50 (-log M) |
| YSHGTFTSDYSKYLDK([γGlu-γGlu-dpeg-C20 diacid])KYAQEFV[Aib]WLEEEPSSGAPPPS-OH [Compound A15] | 12.1 pEC50 (-log M) |
| YSHGTFTSDYSKYLDK([γGlu-γGlu-dpeg-C20 diacid])KYAQEFV[Aib]WLENEPSSGAPPPS-OH [Compound A16] | 12.2 pEC50 (-log M) |
| YSHGTFTSDYSKYLDK([γGlu-γGlu-dpeg-C20 diacid])KYAQEFV[Aib]WLEQEPSSGAPPPS-OH [Compound A17] | 12.1 pEC50 (-log M) |
| YSHGTFTSDYSKYLD[Aib]K([γGlu-γGlu-dpeg-C20 diacid])YAQEFV[Aib]WLEDEPSSGAPPPS-OH [Compound A3] | 12.5 pEC50 (-log M) |
| YSHGTFTSDYSKYLDK([γGlu-γGlu-dpeg-C20 diacid])KYAQEFV[Aib]WLE[NMeE]EPSSGAPPPS-OH [Compound A18] | 10.4 pEC50 (-log M) |
| YSHGTFTSDYSKYLDK([γGlu-γGlu-dpeg-C20 diacid])KYAQEFV[Aib]WLESEPSSGAPPPS-OH [Compound A19] | 12.1 pEC50 (-log M) |
| YSHGTFTSDYSKYLDK([γGlu-γGlu-dpeg-C20 diacid])KYAQEFV[Aib]WLEKEPSSGAPPPS-OH [Compound A20] | 12.1 pEC50 (-log M) |
| YSHGTFTSDYSKYLDK([γGlu-γGlu-dpeg″-C20 diacid])KYAEKFVKWLEDEPSSGAPPPS-OH (lactam 20-24) [Compound A21] | 12.1 pEC50 (-log M) |
| YSHGTFTSDYSKYLDK([γGlu-γGlu-dpeg-C20 diacid])KYAKEFV[Aib]WLESEPSSGAPPPS-OH [Compound A22] | 11.7 pEC50 (-log M) |
| YSHGTFTSDYSKYLD[Aib]KK([γGlu-γGlu-dpeg-C20 diacid])AQEFV[Aib]WLEDEPSSGAPPPS-OH [Compound A4] | 11.7 pEC50 (-log M) |
| YSHGTFTSDYSKYLDK([γGlu-γGlu-dpeg-C20 diacid])KYAEEFV[Aib]WLESEPSSGAPPPS-OH [Compound A23] | 11.5 pEC50 (-log M) |
| YSHGTFTSDYSKYLDK([γGlu-γGlu-dpeg-C20 diacid])KYASEFV[Aib]WLESEPSSGAPPPS-OH [Compound A24] | 12.5 pEC50 (-log M) |
| YSHGTFTSDYSKYLDK([γGlu-γGlu-dpeg″-C20 diacid])KYAEKFVKWLEEEPSSGAPPPS-OH (lactam 20-24) [Compound A25] | 11.9 pEC50 (-log M) |
| YSHGTFTSDYSKYLD[Aib]KYAK([γGlu-γGlu-dpeg-C20 diacid])EFV[Aib]WLEDEPSSGAPPPS-OH [Compound A5] | 11.6 pEC50 (-log M) |

What follows are binders tested against human GLP-1 receptor (GLP-1R) (human, UniProt P43220 24-463) (assay: cell-based or functional assay).
Sequence of human GLP-1 receptor (GLP-1R) (P43220 24-463): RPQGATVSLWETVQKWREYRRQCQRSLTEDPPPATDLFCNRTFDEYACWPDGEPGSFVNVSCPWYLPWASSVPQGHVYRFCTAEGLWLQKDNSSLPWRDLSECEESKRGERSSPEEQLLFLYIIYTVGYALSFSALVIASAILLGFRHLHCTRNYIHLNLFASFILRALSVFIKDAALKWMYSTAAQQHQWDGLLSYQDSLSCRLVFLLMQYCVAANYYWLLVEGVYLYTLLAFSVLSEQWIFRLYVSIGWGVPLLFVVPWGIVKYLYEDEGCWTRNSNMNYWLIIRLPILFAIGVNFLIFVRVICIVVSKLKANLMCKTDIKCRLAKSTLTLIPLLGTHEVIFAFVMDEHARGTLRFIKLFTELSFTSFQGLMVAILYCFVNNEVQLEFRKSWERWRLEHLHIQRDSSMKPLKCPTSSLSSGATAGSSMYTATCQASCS

| Binder | pEC50, cAMP accumulation |
| --- | --- |
| YSHGTFTSDYSKYLDK([γGlu-γGlu-dpeg-C20 diacid])KYAQEF[Aib]EWLEDEPSSGAPPPS-OH [Compound A8] | < 9 pEC50 (-log M) |
| YSHGTFTSDYSKYLDK([γGlu-γGlu-dpeg-C20 diacid])KYAQEF[Aib]KWLEDEPSSGAPPPS-OH [Compound A9] | < 9 pEC50 (-log M) |
| YSHGTFTSDYSKYLDK([γGlu-γGlu-dpeg-C20 diacid])KYAQEF[Aib]SWLEDEPSSGAPPPS-OH [Compound A10] | < 9 pEC50 (-log M) |
| YSHGTFTSDYSKYLDK([γGlu-γGlu-dpeg″-C20 diacid])KYAKEFVEWLEDEPSSGAPPPS-OH (lactam 20-24) [Compound A11] | < 9 pEC50 (-log M) |
| YSHGTFTSDYSKYLDK([γGlu-γGlu-dpeg″-C20 diacid])KYAEEFVKWLEDEPSSGAPPPS-OH (lactam 20-24) [Compound A12] | < 9 pEC50 (-log M) |
| B1 | < 9 pEC50 (-log M) |
| B2 | < 9 pEC50 (-log M) |
| YSHGTFTSDYSKYLDK([γGlu-γGlu-dpeg-C20 diacid])KYAQEFV[Aib]WLEEEPSSGAPPPS-OH [Compound A15] | < 9 pEC50 (-log M) |
| YSHGTFTSDYSKYLDK([γGlu-γGlu-dpeg-C20 diacid])KYAQEFV[Aib]WLENEPSSGAPPPS-OH [Compound A16] | < 9 pEC50 (-log M) |
| YSHGTFTSDYSKYLDK([γGlu-γGlu-dpeg-C20 diacid])KYAQEFV[Aib]WLEQEPSSGAPPPS-OH [Compound A17] | < 9 pEC50 (-log M) |
| YSHGTFTSDYSKYLDK([γGlu-γGlu-dpeg-C20 diacid])KYAQEFV[Aib]WLE[NMeE]EPSSGAPPPS-OH [Compound A18] | < 9 pEC50 (-log M) |
| YSHGTFTSDYSKYLDK([γGlu-γGlu-dpeg-C20 diacid])KYAQEFV[Aib]WLESEPSSGAPPPS-OH [Compound A19] | < 9 pEC50 (-log M) |
| YSHGTFTSDYSKYLDK([γGlu-γGlu-dpeg-C20 diacid])KYAQEFV[Aib]WLEKEPSSGAPPPS-OH [Compound A20] | < 9 pEC50 (-log M) |
| YSHGTFTSDYSKYLDK([γGlu-γGlu-dpeg″-C20 diacid])KYAEKFVKWLEDEPSSGAPPPS-OH (lactam 20-24) [Compound A21] | < 9 pEC50 (-log M) |
| YSHGTFTSDYSKYLDK([γGlu-γGlu-dpeg-C20 diacid])KYAKEFV[Aib]WLESEPSSGAPPPS-OH [Compound A22] | < 9 pEC50 (-log M) |
| YSHGTFTSDYSKYLDK([γGlu-γGlu-dpeg-C20 diacid])KYAEEFV[Aib]WLESEPSSGAPPPS-OH [Compound A23] | < 9 pEC50 (-log M) |
| YSHGTFTSDYSKYLDK([γGlu-γGlu-dpeg-C20 diacid])KYASEFV[Aib]WLESEPSSGAPPPS-OH [Compound A24] | < 9 pEC50 (-log M) |
| YSHGTFTSDYSKYLDK([γGlu-γGlu-dpeg″-C20 diacid])KYAEKFVKWLEEEPSSGAPPPS-OH (lactam 20-24) [Compound A25] | < 9 pEC50 (-log M) |
| B3 | < 9 pEC50 (-log M) |
